According to PMC5374404, “A key centriole assembly interaction interface between human PLK4 and STIL appears to not be conserved in flies” (Biology Open, 2017):
“And” between values parts separate entries of the source, which are not always exact repeats. Identical values can stand only once. Ends that are not written are not given here.

Tests used:
[1] = molecular target: the molecule itself; experiment: SEC-MALS; apo HsPB3 (aa 884-970) alone, 100 µl at 200 µM over a Superdex 200 10/300 column; 50 mM Tris pH 7.5, 150 mM NaCl, 2 mM DTT
[2] = molecular target: the molecule itself; experiment: crystal structure; STIL 726-750 alone, 0.91 Å; sitting drop, 19°C; tetramer (dimer of dimers) generated by crystallographic symmetry
[3] = molecular target: the molecule itself; experiment: SEC-MALS; STIL CCD (aa 717-758) alone, 100 µl injected at 62 to 4000 µM over an S200 10/300 column; 50 mM Tris pH 7.5, 150 mM NaCl, 2 mM DTT, 0.4 ml/min
[4] = molecular target: T1, Drosophila Sak/PLK4 Polo-Box-3 domain (aa 657-745), tag cleaved (Drosophila melanogaster (Fruit fly), UniProt O97143); experiment: analytical gel filtration
T1 chain: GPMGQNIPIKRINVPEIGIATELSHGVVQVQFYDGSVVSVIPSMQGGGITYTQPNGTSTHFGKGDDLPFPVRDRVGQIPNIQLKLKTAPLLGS

B1: human PLK4 Polo-Box-3 domain (aa 884-970), tag cleaved (domain or fragment)
chain: GPMGSAQLLKSVFVKNVGWATQLTSGAVWVQFNDGSQLVVQAGVSSISYTSPNGQTTRYGENEKLPDYIKQKLQCLSSILLMFSNPTPNFH
notes: remnant left at the N-terminus of the PB3 construct after 3C cleavage of the His-MBP tag; PLK4, human, Polo-Box-3 domain, residues 884-970; from an E. coli codon-optimised cDNA (Geneart); also called HsPB3; apoHsPB3; source: E. coli B834, purified (Ni-NTA, 3C cleavage, reverse Ni-NTA, size exclusion); not shown: His, N-terminal, cleaved; MBP, N-terminal, cleaved
[1]
  stoichiometry N: 2

B2: human STIL coiled-coil domain (aa 726-750), tag cleaved (domain or fragment)
chain: GGSLTEQDRQLRLLQAQIQRLLEAQSLM
notes: remnant left at the N-terminus of the CCD after TEV cleavage of the His-lipoyl tag; STIL, human, coiled-coil domain, residues 726-750; also called STIL^726-750; HsCCD; source: E. coli C41, purified (Ni-NTA, TEV cleavage, reverse Ni-NTA, size exclusion); not shown: His, N-terminal, cleaved; lipoyl domain (B. stearothermophilus dihydrolipoamide acetyltransferase), N-terminal, cleaved
[2]
  stoichiometry N: 4

B3: human STIL coiled-coil domain (aa 717-758), tag cleaved (domain or fragment)
chain: GGSGLSPDAYRFLTEQDRQLRLLQAQIQRLLEAQSLMPCSPKTTA
notes: remnant left at the N-terminus of the CCD after TEV cleavage of the His-lipoyl tag; STIL, human, coiled-coil domain, residues 717-758; also called HsCCD; STIL CCD; source: E. coli C41, purified (Ni-NTA, TEV cleavage, reverse Ni-NTA, size exclusion); not shown: His, N-terminal, cleaved; lipoyl domain (B. stearothermophilus dihydrolipoamide acetyltransferase), N-terminal, cleaved
[3]
  stoichiometry N: ≥ 2 and < 4

## NKSDLAALVSLVESVRHEQQQLRNLCEMILEQQQRAK (protein, also: His-lipoyl-tagged) [His-lipoyl-tagged Drosophila Ana2 coiled-coil domain (aa 193-229)]
[4]
  binding result: no binding
